The target of test [1] is deglycosylated human nAChR α9-ECD (human) (UniProt Q9UGM1). Nature of the test: radioligand binding.
Test [2] has as its target glycosylated human nAChR α9-ECD (human) (UniProt Q9UGM1). Nature of the test: radioligand binding.

A word on the Ki: it is the dissociation constant of the complex between target and ligand, obtained from inhibition or displacement. Read a high Ki as lower affinity.

“α-conotoxin RgIA, globular isomer, C-terminally amidated (from UniProt P0C1D0 20-32) (peptide)”: the Ki was determined as 2700 nM in test [1] and 13.3 µM in test [2].

(Values after paper PMC6504684 (Frontiers in Pharmacology, 2019).)
